# ± gives the standard deviation of the averaged measurements.
# Tested on: ATP
# Assay: switch fluorescence ratio, 500 uM ATP over buffer (Cy3 cluster intensity, sum of 5 cycles each) (fold (ratio)); higher = stronger signal-on switching upon ATP binding; sequences stand for … in TCGTCGGCAGCGTCAGATGTGTATAAGAGACAGTTTTTTTTTTTTTTTTTTTTTTTTT…TC
# Conditions: aptamer strand: ATP DNA aptamer (quencher-CACCTGGGGGAGTATTGCGGAGGAAGG + anchor), 100 nM annealed; ATP concentration: 500 uM
# Outline: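 Clusters carrying Cy3-labelled switching strands on a modified Illumina MiSeq flow-cell were annealed to 100 nM quencher-labelled ATP aptamer and imaged in selection buffer. They were imaged again after 15 min with 500 uM ATP at 22 °C, over five buffer/ATP cycles with NaOH stripping and re-annealing in between. For each cluster, the fluorescence ratio is the summed Cy3 intensity of the target cycles divided by that of the buffer cycles, averaged per switch-domain sequence. Clusters outside 100-1000 RFU were left out.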
# 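Note: ATP exposure 15 min at 22 °C before imaging.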
sequence,measurement,value
CGGATGGTCA,switch fluorescence ratio,1.013 ± 0.0099
CGGATGTTAT,switch fluorescence ratio,0.9626 ± 0.0096
CGGATTAGGG,switch fluorescence ratio,1 ± 0.022
CGGATTCCCC,switch fluorescence ratio,1.06 ± 0.011
CGGATTCGAG,switch fluorescence ratio,0.98 ± 0.035
CGGATTGGGA,switch fluorescence ratio,1.002 ± 0.0026
CGGATTTGGG,switch fluorescence ratio,0.957 ± 0.067
CGGCAACGGT,switch fluorescence ratio,1.01 ± 0.011
CGGCAAGTGC,switch fluorescence ratio,2.19 ± 1
CGGCAGTATG,switch fluorescence ratio,1.02 ± 0.011
CGGCAGTGTG,switch fluorescence ratio,1.01 ± 0.048
CGGCATAGAT,switch fluorescence ratio,1.04 ± 0.029
CGGCATGAGG,switch fluorescence ratio,0.972 ± 0.018
CGGCCAACGC,switch fluorescence ratio,1.17 ± 0.028
CGGCCATCGG,switch fluorescence ratio,0.9978 ± 0.0049
CGGCCGAGAG,switch fluorescence ratio,1.02 ± 0.018
CGGCCGAGGA,switch fluorescence ratio,0.978 ± 0.01
CGGCCGGGGA,switch fluorescence ratio,1.14 ± 0.19
CGGCCGTACG,switch fluorescence ratio,1.01 ± 0.019
CGGCCTGTTG,switch fluorescence ratio,1.01 ± 0.026
CGGCGAATAT,switch fluorescence ratio,1.024 ± 0.0011
CGGCGATCGC,switch fluorescence ratio,1.04 ± 0.011
CGGCGATGGG,switch fluorescence ratio,1.11 ± 0.069
CGGCGGGCTT,switch fluorescence ratio,1.02 ± 0.018
CGGCGGGTTT,switch fluorescence ratio,1.02 ± 0.049
CGGCGTGTTT,switch fluorescence ratio,1.052 ± 0.0087
CGGCTAAAGA,switch fluorescence ratio,0.976 ± 0.011
CGGCTCCCGC,switch fluorescence ratio,1.046 ± 0.0084
CGGCTGAATT,switch fluorescence ratio,1 ± 0.003
CGGCTGGTGG,switch fluorescence ratio,1.02 ± 0.016
CGGCTGTACG,switch fluorescence ratio,1.07 ± 0.022
CGGCTTACTT,switch fluorescence ratio,1.07 ± 0.011
CGGCTTGGTG,switch fluorescence ratio,0.996 ± 0.048
CGGCTTTCCC,switch fluorescence ratio,1.01 ± 0.028
CGGCTTTGGA,switch fluorescence ratio,1.056 ± 0.0019
CGGGAAATAG,switch fluorescence ratio,1.06 ± 0.02
CGGGAAGGCC,switch fluorescence ratio,0.98791 ± 0.00011
CGGGAATCCT,switch fluorescence ratio,1.11 ± 0.04
CGGGAATTAA,switch fluorescence ratio,0.997 ± 0.03
CGGGAATTAG,switch fluorescence ratio,1.01 ± 0.035
CGGGACGGGC,switch fluorescence ratio,1.04 ± 0.043
CGGGAGAGTT,switch fluorescence ratio,0.996 ± 0.065
CGGGAGCG,switch fluorescence ratio,1.03 ± 0.022
CGGGAGGTAA,switch fluorescence ratio,0.9863 ± 0.0038
CGGGATAGGG,switch fluorescence ratio,0.977 ± 0.026
CGGGATGACA,switch fluorescence ratio,0.979 ± 0.046
CGGGATGATT,switch fluorescence ratio,0.998 ± 0.044
CGGGATGGAG,switch fluorescence ratio,0.9879 ± 0.0062
CGGGATTTAG,switch fluorescence ratio,1 ± 0.014
CGGGCAGTTG,switch fluorescence ratio,0.9992 ± 0.0071
CGGGCATGGG,switch fluorescence ratio,1.01 ± 0.029
CGGGCCACGT,switch fluorescence ratio,0.997 ± 0.034
CGGGCCACTT,switch fluorescence ratio,1.008 ± 0.0076
CGGGCCGGGA,switch fluorescence ratio,0.976 ± 0.025
CGGGCCGTTT,switch fluorescence ratio,1.06 ± 0.077
CGGGCCTTGA,switch fluorescence ratio,0.981 ± 0.016
CGGGCGATAA,switch fluorescence ratio,1.45 ± 0.0045
CGGGCGGACA,switch fluorescence ratio,0.974 ± 0.04
CGGGCGGGTG,switch fluorescence ratio,1.03 ± 0.017
CGGGCGTCTC,switch fluorescence ratio,0.996 ± 0.022
CGGGCTATGG,switch fluorescence ratio,1 ± 0.023
CGGGCTGTTG,switch fluorescence ratio,0.963 ± 0.033
CGGGGAAAGC,switch fluorescence ratio,0.985 ± 0.027
CGGGGAAGTG,switch fluorescence ratio,1 ± 0.019
CGGGGAATTT,switch fluorescence ratio,1.01 ± 0.022
CGGGGAGTAT,switch fluorescence ratio,0.975 ± 0.015
CGGGGATCGT,switch fluorescence ratio,1 ± 0.032
CGGGGATGCA,switch fluorescence ratio,1.03 ± 0.023
CGGGGATGTC,switch fluorescence ratio,1.05 ± 0.014
CGGGGATTTC,switch fluorescence ratio,1 ± 0.027
CGGGGATTTG,switch fluorescence ratio,0.976 ± 0.032
CGGGGCGAAG,switch fluorescence ratio,0.984 ± 0.038
CGGGGCGGGA,switch fluorescence ratio,1.01 ± 0.021
CGGGGCTGAA,switch fluorescence ratio,0.991 ± 0.0089
CGGGGGAATG,switch fluorescence ratio,0.967 ± 0.027
CGGGGGACTG,switch fluorescence ratio,1.04 ± 0.039
CGGGGGAGTA,switch fluorescence ratio,0.996 ± 0.018
CGGGGGATGG,switch fluorescence ratio,1.01 ± 0.045
CGGGGGCCGA,switch fluorescence ratio,1 ± 0.019
CGGGGGGACG,switch fluorescence ratio,1.01 ± 0.084
CGGGGGGCTC,switch fluorescence ratio,0.99 ± 0.01
CGGGGGGTAC,switch fluorescence ratio,1.03 ± 0.036
CGGGGGGTAG,switch fluorescence ratio,0.995 ± 0.035
CGGGGGGTGG,switch fluorescence ratio,1 ± 0.039
CGGGGGGTTT,switch fluorescence ratio,1.01 ± 0.025
CGGGGGTACA,switch fluorescence ratio,1.02 ± 0.019
CGGGGGTAGT,switch fluorescence ratio,1.03 ± 0.015
CGGGGGTCGA,switch fluorescence ratio,0.989 ± 0.031
CGGGGTAGTC,switch fluorescence ratio,0.967 ± 0.07
CGGGGTATTT,switch fluorescence ratio,1 ± 0.022
CGGGGTCGTT,switch fluorescence ratio,1 ± 0.024
CGGGGTGAAA,switch fluorescence ratio,0.983 ± 0.029
CGGGGTGCCT,switch fluorescence ratio,0.999 ± 0.024
CGGGGTGTTA,switch fluorescence ratio,1.07 ± 0.057
CGGGGTTACT,switch fluorescence ratio,0.9961 ± 0.0082
CGGGGTTATT,switch fluorescence ratio,0.989 ± 0.014
CGGGGTTTGC,switch fluorescence ratio,0.997 ± 0.015
CGGGGTTTGG,switch fluorescence ratio,0.999 ± 0.017
CGGGTAAGTA,switch fluorescence ratio,1.03 ± 0.097
CGGGTAATCG,switch fluorescence ratio,1.01 ± 0.0082
CGGGTAATTC,switch fluorescence ratio,1.128 ± 0.0039
CGGGTACTTT,switch fluorescence ratio,1 ± 0.059
CGGGTATTAA,switch fluorescence ratio,0.994 ± 0.032
CGGGTATTCG,switch fluorescence ratio,0.99 ± 0.03
CGGGTATTGG,switch fluorescence ratio,0.97968 ± 0.00074
CGGGTCGGTT,switch fluorescence ratio,1.07 ± 0.1
CGGGTCTAAA,switch fluorescence ratio,0.9966 ± 0.0027
CGGGTCTATT,switch fluorescence ratio,0.9649 ± 0.001
CGGGTCTTAG,switch fluorescence ratio,1.01 ± 0.011
CGGGTGAGGA,switch fluorescence ratio,1.04 ± 0.04
CGGGTGAGTA,switch fluorescence ratio,1.05 ± 0.08
CGGGTGCAAG,switch fluorescence ratio,1.03 ± 0.027
CGGGTGGCCT,switch fluorescence ratio,1 ± 0.02
CGGGTGGCGA,switch fluorescence ratio,1.02 ± 0.081
CGGGTGGGAA,switch fluorescence ratio,0.9995 ± 0.0026
CGGGTGGGCA,switch fluorescence ratio,0.945 ± 0.019
CGGGTGGGGA,switch fluorescence ratio,1.01 ± 0.04
CGGGTGGGGC,switch fluorescence ratio,1.02 ± 0.052
CGGGTGGGGG,switch fluorescence ratio,1.07 ± 0.036
CGGGTGGGTA,switch fluorescence ratio,1 ± 0.023
CGGGTTAAAA,switch fluorescence ratio,0.9714 ± 0.0034
CGGGTTAATA,switch fluorescence ratio,0.989 ± 0.022
CGGGTTAGGA,switch fluorescence ratio,1.02 ± 0.036
CGGGTTAGTT,switch fluorescence ratio,1.002 ± 0.01
CGGGTTCAGT,switch fluorescence ratio,0.974 ± 0.014
CGGGTTCGTG,switch fluorescence ratio,0.972 ± 0.029
CGGGTTCTGG,switch fluorescence ratio,0.989 ± 0.014
CGGGTTGCCT,switch fluorescence ratio,0.999 ± 0.028
CGGGTTGGGA,switch fluorescence ratio,1.007 ± 0.0042
CGGGTTGTGT,switch fluorescence ratio,1 ± 0.02
CGGGTTTCGC,switch fluorescence ratio,0.986 ± 0.014
CGGGTTTGTG,switch fluorescence ratio,0.973 ± 0.032
CGGGTTTTCC,switch fluorescence ratio,1.03 ± 0.042
CGGGTTTTTT,switch fluorescence ratio,0.988 ± 0.032
CGGTAACCGG,switch fluorescence ratio,0.979 ± 0.0098
CGGTAAGGCA,switch fluorescence ratio,0.99 ± 0.017
CGGTAAGTGG,switch fluorescence ratio,0.988 ± 0.024
CGGTAATATC,switch fluorescence ratio,1.915 ± 0.016
CGGTACCGTT,switch fluorescence ratio,1.02 ± 0.049
CGGTACGGGT,switch fluorescence ratio,0.992 ± 0.025
CGGTAGATCG,switch fluorescence ratio,1 ± 0.073
CGGTAGGCGG,switch fluorescence ratio,0.971 ± 0.018
CGGTATAAGT,switch fluorescence ratio,0.9949 ± 0.0042
CGGTATTATG,switch fluorescence ratio,0.993 ± 0.022
CGGTATTCCG,switch fluorescence ratio,0.945 ± 0.017
CGGTATTCTT,switch fluorescence ratio,0.9883 ± 0.0068
CGGTATTTAA,switch fluorescence ratio,1.02 ± 0.046
CGGTATTTAC,switch fluorescence ratio,1.04 ± 0.021
CGGTCAACAC,switch fluorescence ratio,1.66 ± 0.15
CGGTCAAGAG,switch fluorescence ratio,1.11 ± 0.019
CGGTCATAAG,switch fluorescence ratio,0.982 ± 0.043
CGGTCCAATC,switch fluorescence ratio,1.37 ± 0.052
CGGTCCCTGC,switch fluorescence ratio,1.01 ± 0.1
